# Reference: article PMC7865940, “Effect of DNA Glycosylases OGG1 and Neil1 on Oxidized G-Rich Motif in the KRAS Promoter”
# B1: 32R wild-type duplex (dsDNA)
# DNA 1: AGGGCGGTGTGGGAAGAGGGAAGAGGGGGAGG
# DNA 2: CCTCCCCCTCTTCCCTCTTCCCACACCGCCCT
# Target: OGG1 (hOGG1, 8-oxoguanine glycosylase) (UniProt O15527 1-345)
# Experiment: EMSA; two retarded bands (1:1 and 1:2 suggested); not cleaved; EMSA buffer A: 50 mM Tris-HCl pH 7.4, 100 mM NaCl (duplex) or 100 mM KCl (G4), 1 mM EDTA, 5 mM NaF, 1 mM Na3VO4, 1 mM DTT, 2.5 ng/uL poly[dI-dC], 8% glycerol; 8 nM DNA, 0/1/5 uM protein (also given as 1 and 5 ug), 15 min; native 5% PAGE in TBE at 20 C (Results give buffer B for the G4 incubation)
# Settings: protein: recombinant; tags: N-terminal His; label: 5'-32P on G-rich strand; annealed with complementary strand in 100 mM NaCl
# Sequence of OGG1 (hOGG1, 8-oxoguanine glycosylase) (O15527 whole entry): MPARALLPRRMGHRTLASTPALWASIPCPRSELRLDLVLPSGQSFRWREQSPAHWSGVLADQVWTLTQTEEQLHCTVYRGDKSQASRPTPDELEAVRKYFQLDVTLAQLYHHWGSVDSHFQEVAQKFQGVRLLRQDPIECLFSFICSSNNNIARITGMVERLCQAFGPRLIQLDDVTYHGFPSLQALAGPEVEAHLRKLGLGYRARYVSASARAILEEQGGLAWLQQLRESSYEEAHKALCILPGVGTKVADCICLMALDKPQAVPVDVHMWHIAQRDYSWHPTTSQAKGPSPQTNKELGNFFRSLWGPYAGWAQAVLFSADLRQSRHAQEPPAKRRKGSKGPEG
binder,measurement,value
B1,binding result,binds
